Source: patent US20130046257A1, “METHODS OF USING AGENTS THAT MODULATE CLAUDIN EXPRESSION” (priority 2010, published 2013)
“Also recorded” adds a separate entry of the source.

Tests used:
Type in all cases: cell-based, human
occludin = assay: Western blot of occludin in siRNA transfected PHK; settings: 48 h
Procedure: (§1) PHK were lysed on ice in RIPA lysis buffer (20 mM Tris, 50 mM NaCl, 2 mM EDTA, 2 mM EGTA, 1% sodium deoxycholate, 1% TX-100, and 2% SDS, pH 7.4), with 1:100 Protease Inhibitor Cocktail (Sigma), 1:100 Phosphatase Inhibitor Cocktail ([…] for 30 min at 4° C. The samples were heated at 95° C. for 10 min and then centrifuged at 14,000 rpm for 15 min. Forty μg of protein, determined by BCA (Pierce) in NuPage LDS Sample Buffer (Invitrogen) was applied to 4-12% NuPage Bis-Tris gels (Invitrogen). Electrophoresis was performed under reducing conditions with MES SDS Buffer (Invitrogen). Membranes were incubated in blotting solution (5% non-fat dry milk in PBS+0.05% Tween 20) at RT for 1 h and then incubated with primary antibodies; claudin-1 (JAY.8; Zymed), occludin (OC/3F10; Zymed) and GAPDH (FL-355; Santa Cruz). An HRP-linked secondary antibody (GE Healthcare) was used with ECL (GE Healthcare) to visualize bands by autoradiography with Kodak BioMax MR film. The pixel intensity of each band was estimated with Image J.
(§2) PHK were plated on glass coverslips at 2-3×10^5 cells/well in a 6-well plate or at 2-3×10^4 cells/filter in Transwell insert (Costar; PET membrane, 0.4 μm pore size, 6.5 mm insert) in Keratinocyte-SFM without antibiotics. […]

[1] = test system: occludin, ZO-1, nectin-1, E-cadherin, filaggrin mRNA; assay: qPCR of other barrier genes in claudin-1 siRNA transfected PHK; settings: siRNA 100 nM
Procedure: (§3) QPCR was performed using the iScript™ cDNA Synthesis kit and iQ™ SYBER Green Supermix assay system (Bio-Rad Laboratories). All PCR amplifications were carried out in triplicate on an iQ5 Multicolor real-time PCR detection system (Bio-Rad). Primers were designed and synthesized by Integrated
(§4) DNA Technologies (Table 1). Relative gene expression was calculated by using the 2^−ΔΔCt method. Livak and Schmittgen, “Analysis of Relative Gene Expression Data Using Real-Time Quantitative PCR and the 2(-Delta Delta C(T)) Method,” Methods 25:402-8 (2001), which is hereby incorporated by reference in its entirety. The normalized Ct value of each sample was calculated using GAPDH as an endogenous control gene.
Reverse transcription was performed from total RNA using iScript™ cDNA Synthesis kit (Bio-Rad) according to the manufacturer's protocol. qPCR was performed using the iQ™ SYBER Green Supermix assay system from Bio-Rad Laboratories. All PCR amplifications were carried out in triplicate on an iQ5 Multicolor real-time PCR detection system (Bio-Rad). Primers were designed and synthesized by Integrated DNA Technologies. Primers used in the study: GAPDH (forward: SEQ ID NO: 16 and reverse: SEQ ID NO: 17); Cldn-1 (forward: (SEQ ID NO:18 and reverse: SEQ ID NO:19); PVRL1 (Nectin1; forward: SEQ ID NO:28 and reverse SEQ ID NO:29).
Relative gene expression was calculated by using the […] method, in which Ct indicates cycle threshold, the fractional cycle number where the fluorescent signal reaches detection threshold. Livak and Schmittgen, “Analysis of Relative Gene Expression Data Using Real-Time Quantitative PCR and the 2(-Delta Delta C(T)) Method,” Methods 25:402-8 (2001), which is hereby incorporated by reference in its entirety. The normalized Ct value of each sample was calculated using GAPDH as an endogenous control gene.

claudin-1 transcripts = assay: qPCR of claudin-1 transcripts in PHK transfected with claudin-1 siRNA; settings: siRNA 100 nM, 2^-ΔΔCt, GAPDH normalised, listed as Cldn1 siRNA
Sequence of claudin-1 (O95832 whole entry): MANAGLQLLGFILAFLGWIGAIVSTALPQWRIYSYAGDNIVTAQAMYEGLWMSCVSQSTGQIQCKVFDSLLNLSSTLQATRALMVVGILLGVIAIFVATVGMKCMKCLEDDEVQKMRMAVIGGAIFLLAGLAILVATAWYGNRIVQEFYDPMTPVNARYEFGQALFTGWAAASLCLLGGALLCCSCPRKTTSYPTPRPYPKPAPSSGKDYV
Procedure: as §3, §4, §2
siRNA approach was used to selectively downregulate claudin-1 in primary human keratinocytes (PHK). […] Relative gene expressions were calculated by using the 2^−ΔΔCt method, in which Ct indicates cycle threshold, the fractional cycle number where the fluorescent signal reaches detection threshold. The normalized Ct value of each sample was calculated using GAPDH as endogenous control gene. […]

claudin-1 = assay: Western blot of claudin-1 in siRNA transfected PHK; settings: 48 h
Procedure: as §1, §2

B1: CLDN1 siRNA: claudin-1 siRNA (h), Santa Cruz; a pool of 3 separate strands, SEQ ID NO: 10-15 (nucleic acid)
chain 1: UACAUAGGCAUAGUUCAUGNN
chain 2: CAUGAACUAUGCCUAUGUANN
chain 3: AACGUAUGCAGUUAAUUCCNN
chain 4: GGAAUUAACUGCAUACGUUNN
chain 5: UGAAGAUCUAUGUAUGUGGNN
chain 6: CCACAUACAUAGAUCUUCANN
modifications: chemistry not given here
For B1, the “occludin protein by Western blot” value (occludin) was “No change”, the “effect on nectin-1 mRNA expression” value [1] was “not affected; also recorded: no effect” and the “effect on mRNA expression of occludin, ZO-1, nectin-1, E-cadherin or filaggrin” value ([1]; n=5/group) was “no effect”. For the same molecule, the “nectin-1 (PVRL1) mRNA relative expression” value ([1]; n=5/group) was 0.99±0.16, the “claudin-1 transcripts, fold of control transfected cells” value (claudin-1 transcripts) was 0.5%±0.06 fold and the “claudin-1 protein by Western blot” value (claudin-1) was “dose-dependent reduction”. For the same molecule, the “decrease in claudin-1 protein expression compared to scrambled siRNA-transfected cells” value (claudin-1; Western blot, dose-dependent) was at most 60%.
